Experimental data: paper PMC7673989 (2020)

Experiments:
[1] = biological target: T1, KETWV peptide (synthetic construct); assay: ITC, 21 °C
T1 chain: KETWV

[2] = biological target: T1, KETWV peptide; assay: intrinsic tryptophan fluorescence quenching, 21 °C

B1: PSD-95 PDZ3 302-403 (protein)
chain: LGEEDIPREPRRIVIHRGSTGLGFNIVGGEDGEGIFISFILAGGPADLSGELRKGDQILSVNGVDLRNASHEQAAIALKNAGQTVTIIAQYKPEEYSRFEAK
- Kd [1]: 25.2 µM
- Kd [2]: 24.6 µM
